From patent US20050182003A1, “Drugs to be used in gene therapy for recessively transmitted genetic disease” (priority 2002, published 2005)

Test system: mouse
Assay: suppression of immune response by oral tolerance
Assay type: in vivo
Conditions: administered orally to a mouse
From the text: As for a method for suppressing antigen-specific immune response, various methods have been already reported. […] Therefore, they tried to suppress the anti-Dsg3 antibody generation in Dsg3^+/+ graft strain by inhibiting the binding of CD40 and CD40L, which are playing an important role to the establishment of immune response. CD40L is a type II cell membrane-penetrating protein, expressed transiently in activated T cells having received antigen stimulation and CD40, its receptor, is expressed in B cells, dendritic cells, monocyte/macrophage, endothelial cells and the like. The CD40-CD40L binding not only plays an important role in cellular immunity by promoting cytokine production and the like, but it is clarified to be quite important for proliferation of B cells, antibody production and the like. Thus, attempts have been made to suppress immune response in autoimmune diseases, organ transplantation and the like by using anti-CD40L monoclonal antibody inhibiting this binding. As mentioned above, in Dsg3^+/+ graft strain, anti-Dsg3 IgG antibody generation, which is detected in serum by ELISA method, is observed approximately two weeks after skin graft, in all mice that underwent skin graft.

B1: Dsg3 protein: Dsg3 protein prepared with the use of E. Coli expression vector, administered orally (protein, UniProt P32926 50-999, looked up)
Desmoglein-3: EWVKFAKPCREGEDNSKRNPIAKITSDYQATQKITYRISGVGIDQPPFGIFVVDKNTGDINITAIVDREETPSFLITCRALNAQGLDVEKPLILTVKILDINDNPPVFSQQIFMGEIEENSASNSLVMILNATDADEPNHLNSKIAFKIVSQEPAGTPMFLLSRNTGEVRTLTNSLDREQASSYRLVVSGADKDGEGLSTQCECNIKVKDVNDNFPMFRDSQYSARIEENILSSELLRFQVTDLDEEYTDNWLAVYFFTSGNEGNWFEIQTDPRTNEGILKVVKALDYEQLQSVKLSIAVKNKAEFHQSVISRYRVQSTPVTIQVINVREGIAFRPASKTFTVQKGISSKKLVDYILGTYQAIDEDTNKAASNVKYVMGRNDGGYLMIDSKTAEIKFVKNMNRDSTFIVNKTITAEVLAIDEYTGKTSTGTVYVRVPDFNDNCPTAVLEKDAVCSSSPSVVVSARTLNNRYTGPYTFALEDQPVKLPAVWSITTLNATSALLRAQEQIPPGVYHISLVLTDSQNNRCEMPRSLTLEVCQCDNRGICGTSYPTTSPGTRYGRPHSGRLGPAAIGLLLLGLLLLLLAPLLLLTCDCGAGSTGGVTGGFIPVPDGSEGTIHQWGIEGAHPEDKEITNICVPPVTANGADFMESSEVCTNTYARGTAVEGTSGMEMTTKLGAATESGGAAGFATGTVSGAASGFGAATGVGICSSGQSGTMRTRHSTGGTNKDYADGAISMNFLDSYFSQKAFACAEEDDGQEANDCLLIYDNEGADATGSPVGSVGCCSFIADDLDDSFLDSLGPKFKKLAEISLGVDGEGKEVQPPSKDSGYGIESCGHPIEVQQTGFVKCQTLSGSQGASALSTSGSVQPAVSIPDPLQHGNYLVTETYSASGSLVQPSTAGFDPLLTQNVIVTERVICPISSVPGNLAGPTQLRGSHTMLCTEDPCSRLI
- suppression of immune response by oral tolerance: failed to obtain successful results
